Article doi:10.1101/2021.11.29.470412

Target: Vrl1-Envy (S. cerevisiae)
Assay: co-IP

recovery of Vin1 in the co-IP: 64%
B1: Vin1-3HA (natural protein)
chain: MENDKASHASPSIGVNEFVVQGEISIDDSERSVKSVSVSISDDEDSKTDVQDNMATPSTRSKFQTDLAIDNRLLEKDPKYKKLFTEKRRRRRPESCINLMTKGKGTGQKDNINDQIFSLRILPGSDLNSLKDSLWIIKISTQPDVEKTIARAFSDFYWLYHQLQNNHWGKTIPPPTRSNILVEKDEFAINHLFMIRNNEKYDPIFNFKPEYIISLQLMAMIKHIFNDKVLRLDSNFIDFISWDDDLPESLQIVVDDSTFTGDKILMTSSQFRELKEFHKQSKKVESITNSHASLIPVTELTEIYISPTKLFSRKDYQRLFQPQSTDNTFNNNDPLIQEWIPKSKTLFTSLSFGSSAPTYQEASTEIQACHDWVSISKEQWKQLLYHVLQYIVDEAVKVNSVINEFTECLKQISLDEVIRANSELFLKFSKLNESFLKKFKGASRQDILKLIILFDENVRFCESFESILNQRLKLGKILSIIEVDLDKKKNFLDKLSPGNNNSNNEDLKIRTAEDEYRIVLKRYNRVKQSWEKIMEDILNERKEFEKREAAEVNSCLKSIRDLNMDEKKHYLQLWQDFVPDEHISQ
